Assay results reported in patent publication CN111778218A (SHANDONG KUANHEZHENG BIOTECHNOLOGY MEDICINE CO LTD, dated 2020).
Positions count from the first letter of the chain named.

B1: 噬菌体展示的单克隆抗体A9 (antibody, V domains shown)
VH: EVQLLESGGGLVQPGGSLRLSCAASGFTFSSYAMSWVRQAPGKGLEWVSGITNSGSSTSYADSVKGRFTISRDNSKNTLYLQMNSLRAEDTAVYYCAKGTDAFDYWGQGTLVTVSS
VL: DIQMTQSPSSLSASVGDRVTITCRASQSISSYLNWYQQKPGKAPKLLIYAASTLQSGVPSRFSGSGSGTDFTLTISSLQPEDFATYYCQQSNCSPATFGQGTKVEIKR
notes: also called A9抗体
B2: 噬菌体展示的单克隆抗体H9 (antibody, V domains shown)
VH: B1 VH with G50D, N53D, S54N, S56A, S59G, G99S, D101N, A102T
VL: B1 VL with L33I, A50D, T53S, S91N, N92S, C93N, A96S
notes: also called H9抗体
B3: 噬菌体展示的单克隆抗体E11 (antibody, V domains shown)
VH: B1 VH with G50S, T52D, N53S, S56Y, S57Y, G99N, T100S, A102S
VL: B1 VL with A50S, T53Y, S91Y, N92D, C93D, S94G, A96N
notes: also called E11抗体
B4: 噬菌体展示的单克隆抗体F5 (antibody, V domains shown)
VH: B1 VH with G50T, T52D, N53S, S54A, S56N, S59T, G99N, T100D, D101S, A102S
VL: B1 VL with A50S, T53W, S91Y, N92S, C93D, S94G, A96D
notes: also called F5抗体; 噬菌体展示F5抗体
B5: 噬菌体展示的单克隆抗体F10 (antibody, V domains shown)
VH: B1 VH with T52D, N53S, S54A, S56Y, S57Y, S59T, G99D, T100S, A102T
VL: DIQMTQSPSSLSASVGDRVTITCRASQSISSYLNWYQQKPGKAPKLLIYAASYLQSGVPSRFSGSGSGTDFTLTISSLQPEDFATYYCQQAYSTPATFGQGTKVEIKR
notes: also called F10抗体

Molecular target: T1, 牛血清白蛋白BSA (牛 (bovine), UniProt P02769 25-607)
T1 construct: also called 牛血清蛋白
Assay: phage ELISA, BSA coated at 1 μg/mL

T1 sequence (P02769 25-607 limits assumed): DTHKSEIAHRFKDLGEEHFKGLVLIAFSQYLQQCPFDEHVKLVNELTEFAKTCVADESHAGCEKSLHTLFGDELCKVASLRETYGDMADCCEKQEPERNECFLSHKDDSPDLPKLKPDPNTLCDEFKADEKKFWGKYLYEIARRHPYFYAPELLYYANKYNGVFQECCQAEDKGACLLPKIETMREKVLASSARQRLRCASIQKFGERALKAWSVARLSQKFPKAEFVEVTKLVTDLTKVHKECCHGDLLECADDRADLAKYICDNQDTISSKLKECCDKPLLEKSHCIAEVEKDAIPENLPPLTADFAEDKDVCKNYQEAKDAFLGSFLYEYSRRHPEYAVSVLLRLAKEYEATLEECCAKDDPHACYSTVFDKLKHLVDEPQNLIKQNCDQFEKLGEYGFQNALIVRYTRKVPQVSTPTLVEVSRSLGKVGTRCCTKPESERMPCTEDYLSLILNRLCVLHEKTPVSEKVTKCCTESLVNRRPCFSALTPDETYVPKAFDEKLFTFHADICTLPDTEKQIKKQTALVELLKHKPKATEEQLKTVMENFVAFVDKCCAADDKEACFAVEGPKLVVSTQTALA

Row | Binder | binding result
1 | B1 | no binding
2 | B2 | no binding
3 | B3 | no binding
4 | B4 | no binding
5 | B5 | no binding
